Read-outs that look alike come from different tables or passages of the source. One block for each compound: values may come before it.
Key:
[1] = solubility in aqueous conjugation buffers; format: physicochemical
Procedure: Co-solvent mediated conjugation of vehicle to CGRP peptide antagonists. […] In an attempt to better solubilize these less soluble peptides during the conjugation reaction, and thereby improve conjugate yields, a variety of alcohol co-solvents were tested in the conjugation reaction.

[2] = in vivo metabolic identification in monkey plasma during intravenous infusion; set-up: species or system Cynomolgus monkey; settings: 20 min during intravenous infusion
Source text: Monkey pharmacokinetic studies.
Samples were taken as described above. After thawing, each 100-11 plasma sample was extracted by solid phase extraction. Extracted samples were collected for LC-MS/MS analysis.

[3] = in vitro metabolic identification in 100% monkey plasma, LC-MS/MS; format: in vitro ADME; settings: 100% Cynomolgus monkey plasma, 4 hours
Source text: Extracted samples were collected for LC-MS/MS analysis.
(Also, see Example 7 herein below for comparison with in vivo metabolic identification.)

[4] = stability in undiluted rat plasma at 37° C. by ELISA; format: in vitro ADME
Source text: (§1) Examples of this approach are the replacement of arginine (R) with citrulline, and phenylalanine (F) with 3-(1-naphthyl)alanine. We have also cyclized side-chain to side-chain (for example, i, i+4 residues) to form ring structures which also increase overall plasma stability (See, e.g., FIG. 3 and FIG. 13).

[5] = stability in undiluted human plasma at 37° C. by ELISA; format: in vitro ADME
Source text: as §1

[6] = rat, in vivo, 2 mg/kg
Procedure: Rat pharmacokinetic studies. […] There were three rats per group (n=3), each weighing 250-325 g. Each group received either a 2 mg/kg intravenous or subcutaneous discrete administration. The approximate dose volume was 0.3 mL per rat. Approximately 0.25 mL of whole blood was taken per time point at the following post-dose collection times for the intravenous groups (in hours): 0.083, 0.25, 0.5, 1, 2, 4, 6, 8, 24, 48, 72, 96 and the following time points for the subcutaneous groups (in hours): 0.25, 0.5, 1, 2, 4, 6, 8, 24, 48, 72, 96. Whole blood samples were collected in microtainer vials containing EDTA as anticoagulant and were kept on wet ice until processed for plasma. The plasma was obtained by centrifuging the whole blood for approximately 5 min at 11,500 rpm. Plasma was transferred to new tubes and stored frozen at approximately −70° C. until quantitative analysis. […] The individual sample concentrations for each time point were averaged (n=3) within a given dose group using Excel 2000 software. The averaged plasma concentration-time data were analyzed by noncompartmental methods using WinNonlin v.3.3 software. Nominal sample times were used in the pharmacokinetic analysis. The area under the concentration-time curve was calculated using the linear/log trapezoidal method to determine exposure.

[7] = stability in undiluted Cynomolgus plasma at 37° C. by ELISA; format: in vitro ADME; settings: cynomolgus monkey
Source text: as §1

[8] = target: rat CGRP1 receptor (Rattus norvegicus, UniProt Q63118+Q9JJ74); assay: in vitro functional potency against the rat ortholog of the CGRP1 receptor; format: cell-based
Source text: Results and Conclusions. […] This was reflected by an apparently similar rightward shift in potency in vivo.

Chain of rat CGRP1 receptor (Q63118 24-464): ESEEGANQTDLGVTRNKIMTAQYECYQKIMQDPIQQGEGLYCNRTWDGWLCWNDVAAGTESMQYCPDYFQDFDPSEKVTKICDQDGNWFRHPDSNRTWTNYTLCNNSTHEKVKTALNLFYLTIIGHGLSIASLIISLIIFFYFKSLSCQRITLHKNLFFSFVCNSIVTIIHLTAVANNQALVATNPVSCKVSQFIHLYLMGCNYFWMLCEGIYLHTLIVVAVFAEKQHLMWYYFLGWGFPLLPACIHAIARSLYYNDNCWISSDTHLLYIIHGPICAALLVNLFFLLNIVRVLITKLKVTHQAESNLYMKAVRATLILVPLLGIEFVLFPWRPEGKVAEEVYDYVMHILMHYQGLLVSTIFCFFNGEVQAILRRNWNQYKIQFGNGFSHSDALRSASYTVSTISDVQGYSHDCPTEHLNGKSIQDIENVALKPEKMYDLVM
Chain of rat CGRP1 receptor (Q9JJ74 27-148): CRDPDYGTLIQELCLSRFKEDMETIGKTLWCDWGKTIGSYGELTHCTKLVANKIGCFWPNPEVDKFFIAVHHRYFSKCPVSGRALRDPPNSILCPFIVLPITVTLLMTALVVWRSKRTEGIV

solubility in words [1]: relatively insoluble | major degradation product [3]: fragment W7-K25
Compound: CC(=O)N[C@@H](Cc1c[nH]c2ccccc12)C(=O)N[C@H](C(=O)N[C@H](C(=O)N[C@@H](Cc1c[nH]cn1)C(=O)N[C@@H](CCCNC(N)=O)C(=O)N[C@@H](CC(C)C)C(=O)N[C@@H](C)C(=O)NCC(=O)N[C@@H](CC(C)C)C(=O)N[C@@H](CC(C)C)C(=O)N[C@@H](CO)C(=O)N[C@@H](CCCNC(N)=O)C(=O)N[C@@H](CO)C(=O)NCC(=O)NCC(=O)N[C@H](C(=O)N[C@H](C(=O)N[C@@H](CCCCNC(=N)N)C(=O)N[C@@H](CCCCN)C(=O)N[C@@H](CC(N)=O)C(=O)N[C@@H](Cc1ccccc1)C(=O)N[C@H](C(=O)N1CCC[C@H]1C(=O)N[C@H](C(=O)N[C@@H](CC(=O)O)C(=O)N[C@H](C(=O)NCC(=O)N1[C@H](C(=O)N[C@@H](Cc2ccccc2)C(=O)N[C@@H](C)C(=O)N[C@@H](Cc2ccccc2)C(N)=O)C[C@@H]2CCCC[C@@H]21)C(C)C)[C@@H](C)O)C(C)C)C(C)C)C(C)C)[C@@H](C)O)C(C)C [SEQ ID NO:658]
degradation products in vivo [2]: fragments W7-T9, T30-A36, W7-N26, T30-F37 and W7-hR24

Compound: Ac-WVTH[Cit]LAGLLS[Cit]SGGVV[hArg]K(20 KPEGald)NFVPTDVGP[1-Nal]AF-NH2 (WVTHXLAGLLSXSGGVVXKNFVPTDVGPXAF; not fully specified; N-acetyl, C-amide, 20 kDa PEG, Cit, hArg, 1-Nal; CGRP peptide; MOD_RES (1)..(1): …ON; MISC_FEATURE (5)..(5): xaa=citrulline; MISC_FEATURE (12)..(12): xaa=citrulline; MISC_FEATURE (18)..(18): xaa=homoarginine; MISC_FEATURE (19)..(19): PEGylated; MISC_FEATURE (29)..(29): xaa=3-(1-naphthyl)alanine; MOD_RES (31)..(31): AMI) [SEQ ID NO: 173]
t1/2 in rat plasma [4]: 8 to 9 h | t1/2 in human plasma [5]: >24 h | AUC0-inf ([6]; iv): 80996 ng·h/mL | AUC0-t ([6]; iv): 80440 ng·h/mL | MRT ([6]; iv): 4.97 h | AUC0-t ([6]; sc): 4385 ng·h/mL | F % ([6]; sc): 5% | t1/2 in Cynomolgus plasma [7]: >24 h

rightward shift of in vitro potency compared with SEQ ID NO:31 [8]: approximately 9 fold
Compound: SEQ ID NO:791 (WVTHXLAGLLSXSGGVVRKNFVPTDVGPFAF; not fully specified; CGRP peptide; MOD_RES (1)..(1): …ON; MISC_FEATURE (5)..(5): xaa=citrulline; MISC_FEATURE (12)..(12): xaa=citrulline; MISC_FEATURE (19)..(19): PEGylated; MOD_RES (31)..(31): AMIDATION)
